Biological target: T1, HLA-A*02:01_… (HLA-PEPTIDE target G8), recombinant soluble complex (human, UniProt P04439 25-297 at identity 0.94); P61769 21-119, enzymatically biotinylated (BirA) for screening and functional assays)
T1 construct: Also crystallised with Fab G8-P1C11
Assay: scFv PPE ELISA

Row | fold binding to target pHLA over minipool of negative control pHLAs [fold] | Binder
1 | ≥ 3 | scFv G8-P1A06 (scFv, V domains shown) VH: QVQLVQSGAEVKKPGASVKVSCKASGYTFTNYYMHWVRQAPGQGLEWMGWMNPIGGGTGYAQKFQGRVTMTRDTSTSTVYMELSSLRSEDTAVYYCARVYDFWSVLSGFDIWGQGTLVTVSS VL: DIQMTQSPSSLSASVGDRVTITCRASQAISNSLAWYQQKPGKAPKLLIYAASTLQSGVPSRFSGSGSGTDFTLTISSLQPEDFATYYCGQSYSTPPTFGQGTKLEIK
2 | ≥ 3 | scFv R3G8-P2E04 (scFv, V domains shown) VH: QVQLVQSGAEVKKPGSSVKVSCKASGGTFSSYGVSWVRQAPGQGLEWMGWISPYSGNTDYAQKFQGRVTITADESTSTAYMELSSLRSEDTAVYYCARGLYYMDVWGKGTTVTVSS VL: DIQMTQSPSSLSASVGDRVTITCRASQSISSWLAWYQQKPGKAPKLLIYDASNLETGVPSRFSGSGSGTDFTLTISSLQPEDFATYYCQQSYSTPLTFGGGTKLEIK
3 | ≥ 3 | scFv G8-P1B03 (scFv, V domains shown) VH: EVQLLESGGGLVQPGGSLRLSCAASGFTFSDYYMSWVRQAPGKGLEWVSGINWNGGSTGYADSVKGRFTISRDNSKNTLYLQMNSLRAEDTAVYYCARVEQGYDIYYYYYMDVWGKGTTVTVSS VL: DIQMTQSPSSLSASVGDRVTITCRASQSISSYLNWYQQKPGKAPKLLIYKASSLESGVPSRFSGSGSGTDFTLTISSLQPEDFATYYCQQSYSAPYTFGPGTKVDIK
4 | ≥ 3 | scFv R3G8-P4F05 (scFv, V domains shown) VH: QVQLVQSGAEVKKPGASVKVSCKASGYTFSNMYLHWVRQAPGQGLEWMGWINPNTGDTNYAQTFQGRVTMTRDTSTSTVYMELSSLRSEDTAVYYCARGLYGDYFLYYGMDVWGQGTKVTVSS VL: DIQMTQSPSSLSASVGDRVTITCRASQGISNYLAWYQQKPGKAPKLLIYAASTLQSGVPSRFSGSGSGTDFTLTISSLQPEDFATYYCQQSYSTPLTFGGGTKVEIK
5 | ≥ 3 | scFv R3G8-P5G08 (scFv, V domains shown) VH: QVQLVQSGAEVKKPGASVKVSCKASGYTFTSNYMHWVRQAPGQGLEWMGWMNPNSGNTGYAQKFQGRVTMTRDTSTSTVYMELSSLRSEDTAVYYCARGLYGDYFLYYGMDVWGQGTTVTVSS VL: not shown
6 | ≥ 3 | scFv G8-P1H08 (scFv, V domains shown) VH: QVQLVQSGAEVKKPGASVKVSCKASGYTFGNYFMHWVRQAPGQGLEWMGMVNPSGGSETFAQKFQGRVTMTRDTSTSTVYMELSSLRSEDTAVYYCAASTWIQPFDYWGQGTLVTVSS VL: DIQMTQSPSSLSASVGDRVTITCRASQGINSYLAWYQQKPGKAPKLLIYDASNLETGVPSRFSGSGSGTDFTLTISSLQPEDFATYYCQQHNSYPPTFGQGTKLEIK
7 | ≥ 3 | scFv R3G8-P5F02 (scFv, V domains shown) VH: QVQLVQSGAEVKKPGASVKVSCKASGYTFTGYYIHWVRQAPGQGLEWMGVINPSGGSTTYAQKLQGRVTMTRDTSTSTVYMELSSLRSEDTAVYYCARDRDSSWTYYYYGMDVWGQGTTVTVSS VL: EIVMTQSPATLSVSPGERATLSCRASQSVGNSLAWYQQKPGQAPRLLIYGASTRATGIPARFSGSGSGTEFTLTISSLQSEDFAVYYCQQYGSSPYTFGQGTKVEIK

Second part, the binder before the results:

Row | Binder | fold binding to target pHLA over minipool of negative control pHLAs [fold]
8 | scFv G8-P2B05 (scFv, V domains shown) VH: EVQLLESGGGLVQPGGSLRLSCAASGFDFSIYSMNWVRQAPGKGLEWVSAISGSGGSTYYADSVKGRFTISRDNSKNTLYLQMNSLRAEDTAVYYCASNGNYYGSGSYYNYWGQGTLVTVSS VL: DIQMTQSPSSLSASVGDRVTITCRASQSISRWLAWYQQKPGKAPKLLIYAASSLQSGVPSRFSGSGSGTDFTLTISSLQPEDFATYYCQQYSTYPITIGQGTKVEIK | ≥ 3
9 | scFv G8-P1A04 (scFv, V domains shown) VH: QVQLVQSGAEVKKPGASVKVSCKASGYPFIGQYLHWVRQAPGQGLEWMGIINPSGDSATYAQKFQGRVTMTRDTSTSTVYMELSSLRSEDTAVYYCARDLSYYYGMDVWGQGTTVTVSS VL: DIQMTQSPSSLSASVGDRVTITCWASQGISSYLAWYQQKPGKAPKLLIYAASSLQSGVPSRFSGSGSGTDFTLTISSLQPEDFATYYCQQSYNTPWTFGPGTKVDIK | ≥ 3
10 | scFv R3G8-P5C03 (scFv, V domains shown) VH: QVQLVQSGAEVKKPGASVKVSCKASGYTFTSYYMHWVRQAPGQGLEWMGWMNPNSGNTGYAQKFQGRVTMTRDTSTSTVYMELSSLRSEDTAVYYCARGLLGFGEFLTYGMDVWGQGTLVTVSS VL: DIQMTQSPSSLSASVGDRVTITCRASQGISNWLAWYQQKPGKAPKLLIYAASTLQSGVPSRFSGSGSGTDFTLTISSLQPEDFATYYCQQTYSTPWTFGQGTKLEIK | ≥ 3
11 | scFv G8-P2E06 (scFv, V domains shown) VH: QVQLVQSGAEVKKPGASVKVSCKASGYTLTTYYMHWVRQAPGQGLEWMGWINPNSGGTNYAQKFQGRVTMTRDTSTSTVYMELSSLRSEDTAVYYCARAVYYDFWSGPFDYWGQGTLVTVSS VL: DIQMTQSPSSLSASVGDRVTITCRASQGISNSLAWYQQKPGKAPKLLIYAASSLQSGVPSRFSGSGSGTDFTLTISSLQPEDFATYYCQQANSFPWTFGQGTKLEIK | ≥ 3
12 | scFv R3G8-P2C10 (scFv, V domains shown) VH: QVQLVQSGAEVKKPGASVKVSCKASGYTFTSYYMHWVRQAPGQGLEWMGWINPYSGGTNYAQKFQGRVTMTRDTSTSTVYMELSSLRSEDTAVYYCAKGGIYYGSGSYPSWGQGTLVTVSS VL: DIQMTQSPSSLSASVGDRVTITCRASQDVSTWLAWYQQKPGKAPKLLIYAASSLQSGVPSRFSGSGSGTDFTLTISSLQPEDFATYYCQQSHSTPQTFGQGTKVEIK | ≥ 3
13 | scFv G8-P1D02 (scFv, V domains shown) VH: EVQLLESGGGLVQPGGSLRLSCAASGFTFSSYWMSWVRQAPGKGLEWVSSISGRGDNTYYADSVKGRFTISRDNSKNTLYLQMNSLRAEDTAVYYCARASGSGYYYYYGMDVWGQGTTVTVSS VL: DIQMTQSPSSLSASVGDRVTITCQASQDISNYLNWYQQKPGKAPKLLIYAASSLQSGVPSRFSGSGSGTDFTLTISSLQPEDFATYYCQQSYSAPYTFGGGTKVEIK | ≥ 3
14 | scFv G8-P1C11 (scFv, V domains shown) VH: QVQLVQSGAEVKKPGASVKVSCKASGGTLSSYPINWVRQAPGQGLEWMGWISTYSGHADYAQKLQGRVTMTRDTSTSTVYMELSSLRSEDTAVYYCARSYDYGDYLNFDYWGQGTLVTVSS VL: DIQMTQSPSSLSASVGDRVTITCQASQDISNYLNWYQQKPGKAPKLLIYAASSLQSGVPSRFSGSGSGTDFTLTISSLQPEDFATYYCQQSYSIPPTFGGGTKVDIK | ≥ 3
15 | scFv G8-P1A03 (scFv, V domains shown) VH: QVQLVQSGAEVKKPGASVKVSCKASGGTFSRSAITWVRQAPGQGLEWMGWINPNSGATNYAQKFQGRVTMTRDTSTSTVYMELSSLRSEDTAVYYCARDDYGDYVAYFQHWGQGTLVTVSS VL: DIQMTQSPSSLSASVGDRVTITCRASQSITSYLNWYQQKPGKAPKLLIYDASNLETGVPSRFSGSGSGTDFTLTISSLQPEDFATYYCQQNYNSVTFGQGTKLEIK | ≥ 3

— US20220213196A1 (GRITSTONE BIO, published 2022)
